In paper PMC12904073, “Two Novel S‐methyltransferases Confer Dimethylsulfide Production in Actinomycetota” (Advanced Science, 2025) one finds Km and kcat data, which are given here for three molecules.

For one data set, the system named is T1, MddM1.
T1 construct: full length (210 aa, ~23 kDa native), GST-tagged in pGEX-4T-1, expressed in E. coli BL21(DE3), glutathione Sepharose purified; no tag removal told
The data set can be described thus: GC detection of DMS, Michaelis-Menten fit. The format is biochemical, Mycolicibacterium poriferae. The following applies: pH 9, 40 °C.

Substrate in data set [1]: CS
The data set is described as follows: GC detection of DMS, Michaelis-Menten fit. The format is biochemical, Thermobispora bispora. The following applies: pH 8, 30 °C, SAM fixed at 1 mM, GST-tagged enzyme 2 µg.

Substrate in the data set “purified protein”: C[S+](CC[C@H](N)C(=O)O)C[C@H]1O[C@@H](n2cnc3c(N)ncnc32)[C@H](O)[C@@H]1O
The data set is described as follows: purified protein. The following applies: pH 8, 30 °C, MeSH as co-substrate fixed at 1 mM, methyl donor.

For orientation: Km means the concentration of substrate that gives half-maximal velocity. `CS` [methanethiol]: in the data set on MddM1 (SAM fixed at 1 mM, GST-tagged enzyme 1 µg), the Km turned out to be 760 µM.

`C[S+](CC[C@H](N)C(=O)O)C[C@H]1O[C@@H](n2cnc3c(N)ncnc32)[C@H](O)[C@@H]1O` (some centres unmarked) [S-adenosine-methionine]: in the data set with MddM1 (MeSH as co-substrate fixed at 1 mM, methyl donor), the Km was determined as 110 ± 50 µM.

B1: TbMddM2 (Thermobispora bispora DSM 43833) (protein)
chain: MSAADVLPVNHHADHPGFSGVIGTVIGLIFLLAGRPTARLAADLAAVGPGDRVADIGCGPGTAVREAARRGAQATGVDPAPVMLRWARMAGRGEAMEWREGTAERVPLPDGWATVWWSLATVHHWKDVEAGLREAYRVLAPGGRLLAMERQIAPGATGQASHGWTRRQADAFADHCRAAGFTDVTVTAHRAGRRDVWVVTATRP
One may read the kcat as the number of substrate molecules converted per active site and unit of time at saturation. For the molecule B1, the Km in data set [1] worked out at 220 µM. In “purified protein”, the Km was found to be 20 ± 10 µM and the catalytic constant (kcat) stood at 0.05 ± 0.01 s⁻¹.
